Data on one molecule can be found in publication doi:10.1101/2024.02.16.579611 (bioRxiv, 2024).

The data set “crystal structure” deals with the molecule itself. Kind of data set: crystal structure.
Data set [1] addresses T1, KorB (wild type), C-terminally His-tagged (plasmid RK2, UniProt P07674 1-358).
T1 sequence: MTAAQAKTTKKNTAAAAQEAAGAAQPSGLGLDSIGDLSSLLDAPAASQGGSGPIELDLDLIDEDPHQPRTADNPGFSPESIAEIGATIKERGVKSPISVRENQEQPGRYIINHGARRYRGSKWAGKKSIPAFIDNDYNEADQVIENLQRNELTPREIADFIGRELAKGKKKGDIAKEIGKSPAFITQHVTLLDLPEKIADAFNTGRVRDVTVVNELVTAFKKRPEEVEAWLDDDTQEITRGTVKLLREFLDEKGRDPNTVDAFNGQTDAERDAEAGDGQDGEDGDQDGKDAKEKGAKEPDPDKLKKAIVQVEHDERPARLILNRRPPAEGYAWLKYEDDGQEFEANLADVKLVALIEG
The experiment in a line: ITC.

B1: KorA (wild type), C-terminally His-tagged (natural protein)
chain: MKKRLTESQFQEAIQGLEVGQQTIEIARGVLVDGKPQATFATSLGLTRGAVSQAVHRVWAAFEDKNLPEGYARVTAVLPEHQAYIVRKWEADAKKKQETKR
Turning to B1, the binding result in “crystal structure” is reported as “binds”. Besides, binding in data set [1] was put at a Kd of 4.2 ± 0.5 µM.
